Test results taken from publication PMC3563628, “Prevalence, Specificity and Determinants of Lipid-Interacting PDZ Domains from an In-Cell Screen and In Vitro Binding Experiments” (PLoS ONE, 2013).
Substitutions are numbered along the chain they refer to. Names and notes keep the numbering of the source. Read-outs that look alike come from different tables or passages of the source.

Legend:
[1] = tested on: eYFP-S1PDZ1-FYVE in MCF-7 cells; test: Pharmacological treatment, localization of eYFP-S1PDZ1-FYVE; format: cell-based; settings: wortmannin 500 nM or LY294002 50 µM for 30 min, YM201636 800 nM for 2 h
[2] = tested on: eYFP-S1PDZ1-MAGI3_3 and eYFP-S1PDZ1-IL16_1 in MCF-7 cells; test: Pharmacological treatment, peroxisomal enrichment of eYFP-S1PDZ1-MAGI3_3 and eYFP-S1PDZ1-IL16_1; format: cell-based; settings: wortmannin 500 nM, LY294002 50 µM, ionomycin 10 µM
[3] = tested on: eYFP-S1PDZ1-CASK in MCF-7 cells; test: Pharmacological treatment, plasma membrane localization of eYFP-S1PDZ1-CASK; format: cell-based
[4] = tested on: eYFP-S1PDZ1-MPDZ_7 in MCF-7 cells; test: Pharmacological treatment, plasma membrane localization of eYFP-S1PDZ1-MPDZ_7; format: cell-based; settings: ionomycin 10 µM
DFNB31_1/Y167W = molecular target: T1, DFNB31_1/Y167W (human, UniProt Q9P202 136-224, Y167W); test: other fluorescence titration; equilibrium titration of peptide into Trp-engineered PDZ domain kept constant at 3 µM, followed by intrinsic tryptophan fluorescence; 25°C, 25 mM HEPES, 150 mM NaCl, pH 7.2, 1 mM beta-mercaptoethanol; settings: both partners purified
T1 construct: first PDZ domain of human DFNB31 (whirlin); predicted PDZ domain (Interpro, PFAM, SMART) with ten amino acids of the original protein added on each side; also called first PDZ domain of DFNB31 with a Trp probe
T1 sequence: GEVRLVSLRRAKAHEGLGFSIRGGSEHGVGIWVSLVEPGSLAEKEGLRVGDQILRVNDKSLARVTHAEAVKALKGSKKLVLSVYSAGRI

[5] = molecular target: T2, DFNB31_1/R144E (with Y167W) (human, UniProt Q9P202 136-224, R144E | Y167W); test: as above; settings: both partners purified
T2 construct: first PDZ domain of human DFNB31 (whirlin); predicted PDZ domain with ten amino acids added on each side
T2 sequence: T1 sequence with R9E

[6] = molecular target: T3, DFNB31_1/R145E (with Y167W) (human, UniProt Q9P202 136-224, R145E | Y167W); test: as above; settings: both partners purified
T3 construct: first PDZ domain of human DFNB31 (whirlin); predicted PDZ domain with ten amino acids added on each side
T3 sequence: T1 sequence with R10E

[7] = molecular target: T4, DFNB31_1/K206E (with Y167W) (human, UniProt Q9P202 136-224, K206E | Y167W); test: as above; settings: both partners purified
T4 construct: first PDZ domain of human DFNB31 (whirlin); predicted PDZ domain with ten amino acids added on each side
T4 sequence: T1 sequence with K71E

[8] = molecular target: T5, DFNB31_1/K209E (with Y167W) (human, UniProt Q9P202 136-224, K209E | Y167W); test: as above; settings: both partners purified
T5 construct: first PDZ domain of human DFNB31 (whirlin); predicted PDZ domain with ten amino acids added on each side; The text once prints R209E for this mutant; also called R209E (once in the text)
T5 sequence: T1 sequence with K74E

[9] = molecular target: T6, DFNB31_1/K212E (with Y167W) (human, UniProt Q9P202 136-224, K212E | Y167W); test: as above; settings: both partners purified
T6 construct: first PDZ domain of human DFNB31 (whirlin); predicted PDZ domain with ten amino acids added on each side
T6 sequence: T1 sequence with K77E

[10] = molecular target: C-terminal peptide of usher (FTDTHL); test: Equilibrium peptide binding titration followed by intrinsic tryptophan fluorescence; settings: for Kd: Y167W mutation introduced as fluorescent probe, protein 3 µM, 25°C, pH 7.2
Excerpt: Given the overall low PtdInsPs specificities, and often modest PtdInsPs affinities, it is unlikely that PtdInsPs bindings alone target the PDZ domains to their defined subcellular compartments. Plausibly, peptide interactions are also involved in controlling the subcellular targeting. To address the interplay between PtdInsPs and peptide-binding we chose DFNB31_1 and CASK as models, taking two of the PDZ domains with well-defined cognate peptides. Cognate peptide ligands were the C-terminal peptides of usher (FTDTHL) for DFNB31_1 [50] and the TKEFYA peptide of syndecan-2 for CASK [51]. We measured the PDZ-peptide affinities by a fluorescence-based approach (Fig. 4E), by engineering Trp into the PDZ scaffolds and following the interactions by changes in intrinsic fluorescence, a strategy previously established for other PDZ domains (KD-values: DFNB31_1/Y167W for FTDTHL 46±6 µM; CASK/I157W for TKEFYA 280±20 µM), [52]. We then determined the apparent PtdIns(4,5)P2 affinities in presence of a (close to) saturating concentration of respective peptide (1 mM). The FTDTHL peptide appeared to compete for DFNB31_1-PtdIns(4,5)P2 interactions (KD ^PtdIns(4,5)P2 in presence of peptide >30 µM, Fig. 4F), which might indicate overlapping binding sites. […] We have previously reported on competitive binding by peptide and PtdIns(4,5)P2 with CASK [13]. However, in these experiments the peptide was linked to sepharose beads and PtdIns(4,5)P2 was present on micelles, which made it more difficult for the PDZ domain to simultaneously interact with the two ligands.
(§1) Spectrofluorimetric measurements were performed at 25°C in 25 mM HEPES, 150 mM NaCl, pH 7.2 and 1 mM beta-mercaptoethanol in a Carry Eclipse Spectrofluorimeter (Varian). The peptides corresponded to the C-termini of syndecan-2 (TKEFYA) and usher (FTDTHL) and were of high purity (purity >95%, GeneCust), and the experiment were performed and analyzed as described previously. Urea induced equilibrium unfolding experiments were performed using 1 µM of proteins (excitation 280 nm emission 320–380 nm) and the data fitted by a standard two-state model.

[11] = SPR equilibrium binding of his-tagged PDZ domains to PtdIns(4,5)P2 liposomes; settings: for Kd: SPR equilibrium analysis, 5% PtdIns(4,5)P2 in DOPC liposomes, 25°C, pH 7.2, read-out: KD app PtdIns(4,5)P2
[12] = Urea induced equilibrium unfolding followed by fluorescence; format: physicochemical; settings: Y167W background, ΔGD-N mut − ΔGD-N wt
Method: as §1
The effects of the mutations on the stability were calculated by ΔΔGD −N = ΔGD −Nmut − ΔGD −Nwt, where ΔΔGD-N is the difference between the free energies of unfolding upon mutation.

CASK/I517W = molecular target: T7, CASK/I517W (human, UniProt O14936 489-564); test: other fluorescence titration; equilibrium titration of peptide into Trp-engineered PDZ domain kept constant at 3 µM, followed by intrinsic tryptophan fluorescence; 25°C, 25 mM HEPES, 150 mM NaCl, pH 7.2, 1 mM beta-mercaptoethanol; settings: both partners purified
T7 chain: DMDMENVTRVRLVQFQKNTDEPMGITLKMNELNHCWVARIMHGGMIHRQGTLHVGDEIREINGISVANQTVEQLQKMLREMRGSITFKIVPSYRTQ

[13] = MCF-7, ionomycin 10 µM, PAO 100 µM, wortmannin 500 nM

Q: With `O=c1cc(N2CCOCC2)oc2c(-c3ccccc3)cccc12` [LY294002, 2-(4-morpholinyl)-8-phenyl-4H-1-benzopyran-4-one] as the molecule, how does the “localization of eYFP-S1PDZ1-FYVE upon treatment” value [1] read?
A: lost

Q: And the “peroxisomal enrichments of eYFP-S1PDZ1-MAGI3_3 and eYFP-S1PDZ1-IL16_1 upon treatment” value (from here on “peroxisomal enrichments”) [2]?
A: did not alter

Q: For `Nc1ccc(C(=O)Nc2cccc(-c3nc(N4CCOCC4)c4oc5ncccc5c4n3)c2)cn1` [YM201636], which “localization of eYFP-S1PDZ1-FYVE upon treatment” value [1] is on record?
A: accumulation of eYFP-S1PDZ1-FYVE at the limiting membranes

Q: Which “plasma membrane localization of eYFP-S1PDZ1-CASK upon treatment” value [3, 13] does the source give for `CCCCOc1cc(C(=O)NCCN(CC)CC)c2ccccc2n1` [dibucaine] here?
A: failed to release

Q: Which “plasma membrane localization of eYFP-S1PDZ1-CASK upon treatment” value [3] does the source give for `C[C@H](CCC(=O)O)C[C@H](C)C[C@H](C)C(=O)/C=C(\O)[C@H](C)C[C@H](C)C/C=C/[C@@H](C)[C@@H](O)[C@@H](C)[C@@H](O)C[C@@H]1CC[C@@](C)([C@H]2CC[C@@](C)([C@@H](C)O)O2)O1` [ionomycin] here?
A: loss of membrane localization

Q: And the “plasma membrane localization of eYFP-S1PDZ1-MPDZ_7 upon treatment” value [4]?
A: not

Q: And the “peroxisomal enrichments” value [2]?
A: did not alter

Q: For `COC[C@H]1OC(=O)c2coc3c2[C@@]1(C)C1=C(C3=O)[C@@H]2CCC(=O)[C@@]2(C)C[C@H]1OC(C)=O` [wortmannin], which “localization of eYFP-S1PDZ1-FYVE upon treatment” value [1] is on record?
A: lost

Q: What about the “plasma membrane localization of eYFP-S1PDZ1-CASK upon treatment” value [3, 13] of the same molecule?
A: failed to release

Q: What about the “peroxisomal enrichments” value [2] of the same molecule?
A: did not alter

B1: C-terminal peptide of usher (FTDTHL) (peptide)
peptide: FTDTHL
notes: last six residues; also called FTDTHL peptide; source: synthetic peptide, bought: GeneCust (purity >95%)
Q: Which results are given for B1?
A: Kd (DFNB31_1/Y167W): 46 ± 6 µM; Kd [5]: 82 ± 3 µM; Kd [6]: 71 ± 8 µM; Kd [7]: 111 ± 8 µM; Kd [8]: 175 ± 15 µM; Kd [9]: 220 ± 40 µM

B2: DFNB31_1/Y167W: DFNB31_1 with Y167W mutation as fluorescent probe (protein)
chain: T1 sequence
modifications: left off: His6, N-terminal, state not stated
notes: DFNB31_1 with Y167W mutation as fluorescent probe
Q: Which Kd [10] does the source give for B2 here?
A: 46 ± 6 µM

B3: DFNB31_1/R144E: DFNB31_1 PDZ domain mutant R144E (protein)
chain: T1 sequence with R9E
modifications: left off: His6, N-terminal, state not stated
Q: With B3 as the molecule, how does the Kd [11] read?
A: > 20 µM

Q: And the Kd [10]?
A: 82 ± 3 µM

Q: What about the ΔΔGD-N [12] of the same molecule?
A: -2.72 ± 0.21 kJ/mol

B4: DFNB31_1/R145E: DFNB31_1 PDZ domain mutant R145E (protein)
chain: T1 sequence with R10E
modifications: left off: His6, N-terminal, state not stated
Q: For B4, which Kd [11] is on record?
A: 15 ± 5 µM

Q: What about the “decrease in PtdIns(4,5)P2 binding upon mutation” value ([11]; versus wild type DFNB31_1) of the same molecule?
A: 2 fold

Q: What about the Kd [10] of the same molecule?
A: 71 ± 8 µM

Q: What about the ΔΔGD-N [12] of the same molecule?
A: -2.22 ± 0.21 kJ/mol

B5: DFNB31_1/K212E: DFNB31_1 PDZ domain mutant K212E (protein)
chain: T1 sequence with K77E
modifications: left off: His6, N-terminal, state not stated
Q: For B5, which Kd [11] is on record?
A: > 20 µM

Q: And the Kd [10]?
A: 220 ± 40 µM

Q: What about the ΔΔGD-N [12] of the same molecule?
A: 5.02 ± 0.42 kJ/mol

B6: DFNB31_1/K209E: DFNB31_1 PDZ domain mutant K209E (protein)
chain: T1 sequence with K74E
modifications: left off: His6, N-terminal, state not stated
Q: What does the source list for B6?
A: Kd [11]: > 20 µM; Kd [10]: 175 ± 15 µM; ΔΔGD-N [12]: -0.628 ± 0.042 kJ/mol

B7: DFNB31_1/K206E: DFNB31_1 PDZ domain mutant K206E (protein)
chain: T1 sequence with K71E
modifications: left off: His6, N-terminal, state not stated
Q: Which Kd [11] does the source give for B7 here?
A: 8.2 ± 2 µM

Q: And the Kd [10]?
A: 111 ± 8 µM

Q: What about the “decrease in peptide binding affinity upon mutation” value ([10]; versus DFNB31_1 (Y167W background)) of the same molecule?
A: 2 fold

Q: What about the ΔΔGD-N [12] of the same molecule?
A: 1.72 ± 0.13 kJ/mol

B8: C-terminal peptide of syndecan-2 (TKEFYA) (peptide)
peptide: TKEFYA
notes: C-terminus of syndecan-2; last six residues; also called TKEFYA peptide of syndecan-2; source: synthetic peptide, bought: GeneCust (purity >95%)
Q: Which Kd (CASK/I517W) does the source give for B8 here?
A: 280 ± 20 µM
